In PMC4737123:

Key:
[1] = molecular target: purified human IgM (non‐specific IgM) (human); experiment: AUC; sedimentation velocity, 40 000 r.p.m., 20°C, PBS; FV6 alone, IgM alone, and IgM (0.2 μM) with FV6 at molar ratios 1:1, 1:2 and 1:3; continuous size distribution (SEDFIT)
[2] = molecular target: purified human IgM (non‐specific IgM) (human); experiment: SPR; Biacore 2000; IgM (750 RU) immobilised on a CM4 chip by amine coupling; FV6 or FV2 flowed over (1.125-18 nM); HEPES buffer (0.01 M HEPES, 0.15 M NaCl, 3 mM EDTA, 0.005% P20) pH 7.4, 20°C; global 1:1 interaction model

recombinant full‐length HB3VAR06 (FV6), entire ectodomain of the PfEMP1 protein HB3VAR06 (domain or fragment)
stoichiometry N [1]: 2 FV6 per IgM | Kd [2]: 0.1 nM | koff [2]: 0.0003 s⁻¹ | kon [2]: 2.3e+06 M⁻¹ s⁻¹

recombinant full‐length IT4VAR04 (a VAR2CSA‐type PfEMP1; FV2) (natural protein)
Kd [2]: 0.3 nM | koff [2]: 0.00051 s⁻¹ | kon [2]: 1.8e+06 M⁻¹ s⁻¹
